Results from publication PMC7793253, “CEP290 is essential for the initiation of ciliary transition zone assembly” (PLoS Biology, 2020).

T1: His-CEP290-N (aa 1–887) (Drosophila, UniProt Q9W0M1 1-887)
T1 construct: Drosophila centrosomal protein 290 (CEP290); Cloned into pET28a; also called CEP290 N-terminus; source: E. coli BL21 (DE3), purified (His resin)
T1 sequence (looked up): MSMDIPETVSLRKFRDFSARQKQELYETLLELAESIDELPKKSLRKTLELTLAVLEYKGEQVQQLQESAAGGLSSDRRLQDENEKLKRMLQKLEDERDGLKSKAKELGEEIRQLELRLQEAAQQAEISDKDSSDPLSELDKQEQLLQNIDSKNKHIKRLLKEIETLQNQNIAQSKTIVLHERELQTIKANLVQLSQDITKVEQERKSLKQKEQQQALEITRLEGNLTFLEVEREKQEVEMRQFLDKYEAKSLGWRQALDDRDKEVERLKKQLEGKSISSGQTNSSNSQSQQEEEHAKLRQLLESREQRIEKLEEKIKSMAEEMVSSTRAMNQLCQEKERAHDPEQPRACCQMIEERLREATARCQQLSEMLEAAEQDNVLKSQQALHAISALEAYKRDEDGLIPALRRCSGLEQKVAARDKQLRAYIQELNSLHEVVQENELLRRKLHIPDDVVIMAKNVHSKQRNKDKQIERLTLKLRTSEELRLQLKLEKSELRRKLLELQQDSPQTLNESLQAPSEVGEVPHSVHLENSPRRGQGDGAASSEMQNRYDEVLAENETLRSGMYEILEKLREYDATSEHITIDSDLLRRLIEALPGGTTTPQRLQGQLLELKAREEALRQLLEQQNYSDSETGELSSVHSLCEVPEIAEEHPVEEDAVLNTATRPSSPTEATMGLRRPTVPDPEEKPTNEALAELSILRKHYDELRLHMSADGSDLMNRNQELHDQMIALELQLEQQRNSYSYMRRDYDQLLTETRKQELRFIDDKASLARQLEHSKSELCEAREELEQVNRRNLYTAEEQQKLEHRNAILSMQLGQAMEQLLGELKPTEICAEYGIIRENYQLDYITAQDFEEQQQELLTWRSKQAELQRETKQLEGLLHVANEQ

B1: GST-DZIP1-N (aa 1–293) (domain or fragment, Drosophila, UniProt Q9VC70 1-293, looked up)
chain: MGFKGKYPQMVRETGFKLRQYRDGPLDWRLMGSYETERILREQNFELVDKALTHLSEAPLGTVLETHILDSGIAKYFVMSQYAIQYLMCCRTYLDECVTDLKEAHTTAQEEIATLRKSLSESNNEVVQLHKRITQIEAIREVVYPCHLCTKNFISNEALNVHIGRKHRVASPPSLTSATGKEKDRDKATDVHLINTIKMELEIKQLKERLNAAERNIKERSTGSKRVSPRQEQRHVGIQSNLAEPKEKDEDSGEARQSEASERKEQLTGLAERLSNFEEWQTQLKQSNEQFIQ
notes: Cloned into pGEX-4T-1; also called N-terminus of DZIP1; source: E. coli BL21 (DE3), purified (Glutathione Sepharose)
B2: GST-DZIP1-C (aa 294–737) (domain or fragment, Drosophila, UniProt Q9VC70 294-737, looked up)
chain: DINKRLEGLSHALEQSKQASASTPPLEDRVATPCLEDLERILTEKVAEIGKVSAHRLEEVVYHLEEGYKEKLGALERELKQLSVQKVQPEPVQTVPVASKIPKPVVRKEETNIDRIRKQVESEFLKQKHDDDTYSIEEAPRKGSEKPFPQLVTQVQVVEKEQPSAGSSDSNPTYTKSPREPAPNKQETKEATDVSDSLSQEETENEEERSLTEEEGTDVPTSGSEAAREDPTPKTIKPSGRIIKSPQKPLTRKDARKMVNRKLMSHGFDMKSKGISHNSLKRVNSELTEHRNKLKLQHPHFYATRNRIRKFVEKLCSAKFSERAEMLLKHKSPLKPMEVPGKGIPRSAISEKSEEDIASSQGEEQTDEQTDSSEQQTRSPSPQRLVSRDFKARLEEILVKPAATIRGASKSSLSSRPVPLPRKRVMFNTTEDGKSFNDSDDNLK
notes: Cloned into pGEX-4T-1; also called C-terminus of DZIP1; source: E. coli BL21 (DE3), purified (Glutathione Sepharose)

Assays:
Assay in all cases: pull-down; GST pull-down: purified His-tagged proteins incubated with GST, GST-DZIP1-N or GST-DZIP1-C in 25 mM Tris-HCl pH 7.4, 150 mM NaCl, 0.5% Triton X-100, 1 mM dithiothreitol, 10% glycerol, overnight at 4°C; blot with anti-His antibodies
Settings in all cases: both partners purified
His-CEP290-N (aa 1–887) = target: T1, His-CEP290-N (aa 1–887)
GST-DZIP1-C (aa 294–737) = target: B2
GST-DZIP1-N (aa 1–293) = target: B1

| binding result (His-CEP290-N (aa 1–887)) | binding result (GST-DZIP1-C (aa 294–737)) | binding result (GST-DZIP1-N (aa 1–293)) | Binder |
| --- | --- | --- | --- |
| binds | – | – | B1 |
| binds | – | – | B2 |
| – | binds | binds | CEP290 N (aa 651–887) (domain or fragment, Drosophila, UniProt Q9W0M1 651-887, looked up, Drosophila centrosomal protein 290 (CEP290); This construct is not described in the methods; probably His-tagged and made in E. coli like His-CEP290-N) EHPVEEDAVLNTATRPSSPTEATMGLRRPTVPDPEEKPTNEALAELSILRKHYDELRLHMSADGSDLMNRNQELHDQMIALELQLEQQRNSYSYMRRDYDQLLTETRKQELRFIDDKASLARQLEHSKSELCEAREELEQVNRRNLYTAEEQQKLEHRNAILSMQLGQAMEQLLGELKPTEICAEYGIIRENYQLDYITAQDFEEQQQELLTWRSKQAELQRETKQLEGLLHVANEQ |
| – | – | binds | His-Rab8 (natural protein, Drosophila, UniProt O18338 1-207, looked up, Drosophila Rab8; Cloned into pET28a; source: E. coli BL21 (DE3), purified (His resin)) MAKTYDYLFKLLLIGDSGVGKTCILFRFSEDAFNTTFISTIGIDFKIRTIELDNKKIKLQIWDTAGQERFRTITTAYYRGAMGIMLVYDITQEKSFENIKNWIRNIEENASADVEKMLLGNKCELTDKRQVSKERGEQLAIEYGIKFMETSAKASINVEEAFLTLASDIKAKTEKRMEANNPPKGGHQLKPMDSRTKDSWLSRCSLL |
| – | – | binds | His-Rab8^T22N (natural protein, Drosophila, UniProt O18338 1-207, looked up, Drosophila Rab8 with T22N; Cloned into pET28a; also called Rab8^GDP-mimicking mutant; source: E. coli BL21 (DE3), purified (His resin)) MAKTYDYLFKLLLIGDSGVGKNCILFRFSEDAFNTTFISTIGIDFKIRTIELDNKKIKLQIWDTAGQERFRTITTAYYRGAMGIMLVYDITQEKSFENIKNWIRNIEENASADVEKMLLGNKCELTDKRQVSKERGEQLAIEYGIKFMETSAKASINVEEAFLTLASDIKAKTEKRMEANNPPKGGHQLKPMDSRTKDSWLSRCSLL |
| – | – | binds | CEP290 N (aa 401–650) (domain or fragment, Drosophila, UniProt Q9W0M1 401-650, looked up, Drosophila centrosomal protein 290 (CEP290); This construct is not described in the methods; probably His-tagged and made in E. coli like His-CEP290-N) GLIPALRRCSGLEQKVAARDKQLRAYIQELNSLHEVVQENELLRRKLHIPDDVVIMAKNVHSKQRNKDKQIERLTLKLRTSEELRLQLKLEKSELRRKLLELQQDSPQTLNESLQAPSEVGEVPHSVHLENSPRRGQGDGAASSEMQNRYDEVLAENETLRSGMYEILEKLREYDATSEHITIDSDLLRRLIEALPGGTTTPQRLQGQLLELKAREEALRQLLEQQNYSDSETGELSSVHSLCEVPEIAE |
